Measured values taken from doi:10.1101/787937.

Assays:
[1] = molecular target: T1, YTHDC1 YTH domain (human, UniProt Q96MU7 345-509); assay: ITC
[2] = molecular target: T1, YTHDC1 YTH domain; assay: X-ray crystallography

Binder	Kd [1]	binding result [2]
GGACU (ssRNA, m6A at position 3) [GG(m6A)CU]	500 nM	–
ACU (ssRNA, m6A at position 1) [(m6A)CU]	–	binds
GAC (ssRNA, m6A at position 2) [G(m6A)C]	–	binds
GGAC (ssRNA, m6A at position 3) [GG(m6A)C]	–	binds
GACU (ssRNA, m6A at position 2) [G(m6A)CU]	–	binds
